Reference: paper PMC3613695 (The Journal of Cell Biology, 2013)

B1: Kxd1 (BLOC-1 subunit), overexpressed (natural protein, yeast, UniProt P53158 1-218, looked up)
chain: MVTGISEENDDEETFSAVHSSTPSINSQSYAIPITEEMSSSFHDSISTTSNSSGSFDSDGSNVSDVVEQNEMDNESNVDEDLFLDNDIPQSSNLLPTDAQDPGPIFDVSRYIFDSLKQSIDSADFSEALSLQTKTSAVINSKSLELKQYIDEMKSRLTQLQEKFENGEATSKKIKRDLETSRKNIDYLNAALRVDFPIEFNQAREKILERRLNEDHDC
B2: Vab2 with C-terminal TAP tag (natural protein)
chain: MVADLTKGILKWKSRIEFDAVGSSSYYEELKGLPPLASHKKLTQAAIFNSTKYELLQVKKDILSIYEVVSRDIDEERNQMQQIELQLKKSLKKVEHSYKNVLKQRASTNCINGNDRLLANAEKKIGSLNEELACVNDIVSDIVNNLTALNANLPKKAQLLKDDSINVAHYPLLFDFLHKSCPKSIIATSEASIHENASPSPLLEHDELPAESINSFYGENELQSDSLAPLQTHDDNISSCKKILPPKFNTTSGPSIETNFENISADGLTYTKCSLKNSISLT
B3: Cnl1 (BLOC-1 subunit), overexpressed (natural protein, yeast, UniProt Q06333 1-122, looked up)
chain: MQDNSSHSRESASAGDDPLGIDKLTVDYDYLLYKMRDYVQSIQLDTTELCKKQNEVMVNGIIENTIDKNIAKFKELLEKCDTLENHYEMLNQLAIITDTFKERIAEAVNNYNSLKKGASKSK
B4: Bli1 (BLOC-1 subunit), overexpressed (natural protein, yeast, UniProt P35727 1-113, looked up)
chain: MGEQNKLYYDVEKLVNSLQESFDLDCAQSVSLFTSKSRSNEAWLEELENKFKLKDDVELDDVENLRAEIDMKLNMLEDKVSYYERLYKELEEFQNEIKIKTVVNNRRQSRTPK
B5: Bls1 (BLOC-1 subunit), overexpressed (natural protein, yeast, UniProt Q06071 1-122, looked up)
chain: MFLTFSMCVNWIIVKMPNRSEELDRLLDKIINSPHRTEASKTLQEIENNQSYILNVQLKKLLRLHDDSFKNKCVSPINYMLEKYTPYMGHTEALQKEAELVDRDLRILEMTYQLIEKNRNSK

Legend:
[1] = biological target: B2; assay: SEC
[2] = biological target: Snn1 (BLOC-1 subunit), overexpressed (yeast, UniProt P48232 1-102); assay: affinity purification with mass spectrometry
[3] = biological target: B2; assay: affinity purification with mass spectrometry

| binding result [3] | Binder | also measured |
| --- | --- | --- |
| – | B1 | binding result [1]: binds |
| – | B2 | binding result [2]: binds |
| binds | B3 | – |
| binds | B4 | – |
| binds | B5 | – |
